# Target: T1, human C5 (human, UniProt P01031 19-673; P01031 678-1676, Beta and alpha chains are disulfide-linked and the protein is glycosylated.)
# T1 construct: Either in-house recombinant C5 or plasma derived C5 (CALBIOCHEM) was used; also called recombinant human C5; plasma derived human C5
# Assay: Biacore, captured antibody, pH 7.4, 37 C;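 note: biacore binding response of anti-C5 antibody light chain variants captured on chip with human C5 injected, ACES running buffer containing 1.2 mM CaCl₂, parent light chain antibody set to 100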
# Procedure: The light chain variants were tested for the binding affinity to C5 at pH 7.4 and at 37 degrees C. using Biacore T200 instrument (GE Healthcare) or Biacore 4000 instrument (GE Healthcare). […] Anti-C5 antibodies were captured on an immobilized molecule, and then human C5 was injected. The running buffer used was pH 7.4 ACES Buffer containing 1.2 mM Ca (20 mM ACES, 150 mM NaCl, 1.2 mM CaCl₂, 0.05% Tween 20). A value, % binding, was determined by normalizing binding response with that of antibody comprising parent light chain as 100.
row,Binder,% binding (parent = 100) [%]
1,"CFP0021 21L 30S (antibody, V domains shown) VH: QVQLVESGGGLVQPGGSLRLSCAASGFTFSDHYMDWVRQAPGKGLEWVGRTRNKANSYTTEYAASVKGRFTISRDDSKNSLYLQMNSLKTEDTAVYYCARTGMMYWGIFDVWGQGTLVTVSS VL: DIQMTQSPSSLSASVGDRVTITCRASQSISDDLAWYQQKPGKAPKLLIYHASTLQSGVPSRFSGSGSGTDFTLTISSLQPEDFATYYCQQHDSYPLTFGQGTKVEIK",76.7
2,"CFP0021 21L 31A (antibody, V domains shown) VH: QVQLVESGGGLVQPGGSLRLSCAASGFTFSDHYMDWVRQAPGKGLEWVGRTRNKANSYTTEYAASVKGRFTISRDDSKNSLYLQMNSLKTEDTAVYYCARTGMMYWGIFDVWGQGTLVTVSS VL: DIQMTQSPSSLSASVGDRVTITCRASQSIEADLAWYQQKPGKAPKLLIYHASTLQSGVPSRFSGSGSGTDFTLTISSLQPEDFATYYCQQHDSYPLTFGQGTKVEIK",31.2
3,"CFP0021 21L 31H (antibody, V domains shown) VH: QVQLVESGGGLVQPGGSLRLSCAASGFTFSDHYMDWVRQAPGKGLEWVGRTRNKANSYTTEYAASVKGRFTISRDDSKNSLYLQMNSLKTEDTAVYYCARTGMMYWGIFDVWGQGTLVTVSS VL: DIQMTQSPSSLSASVGDRVTITCRASQSIEHDLAWYQQKPGKAPKLLIYHASTLQSGVPSRFSGSGSGTDFTLTISSLQPEDFATYYCQQHDSYPLTFGQGTKVEIK",41.3
4,"CFP0021 21L 31N (antibody, V domains shown) VH: QVQLVESGGGLVQPGGSLRLSCAASGFTFSDHYMDWVRQAPGKGLEWVGRTRNKANSYTTEYAASVKGRFTISRDDSKNSLYLQMNSLKTEDTAVYYCARTGMMYWGIFDVWGQGTLVTVSS VL: DIQMTQSPSSLSASVGDRVTITCRASQSIENDLAWYQQKPGKAPKLLIYHASTLQSGVPSRFSGSGSGTDFTLTISSLQPEDFATYYCQQHDSYPLTFGQGTKVEIK",52.3
5,"CFP0021 21L 32N (antibody, V domains shown) VH: QVQLVESGGGLVQPGGSLRLSCAASGFTFSDHYMDWVRQAPGKGLEWVGRTRNKANSYTTEYAASVKGRFTISRDDSKNSLYLQMNSLKTEDTAVYYCARTGMMYWGIFDVWGQGTLVTVSS VL: DIQMTQSPSSLSASVGDRVTITCRASQSIEDNLAWYQQKPGKAPKLLIYHASTLQSGVPSRFSGSGSGTDFTLTISSLQPEDFATYYCQQHDSYPLTFGQGTKVEIK",17.5
6,"CFP0021 21L 32Q (antibody, V domains shown) VH: QVQLVESGGGLVQPGGSLRLSCAASGFTFSDHYMDWVRQAPGKGLEWVGRTRNKANSYTTEYAASVKGRFTISRDDSKNSLYLQMNSLKTEDTAVYYCARTGMMYWGIFDVWGQGTLVTVSS VL: DIQMTQSPSSLSASVGDRVTITCRASQSIEDQLAWYQQKPGKAPKLLIYHASTLQSGVPSRFSGSGSGTDFTLTISSLQPEDFATYYCQQHDSYPLTFGQGTKVEIK",80.4
7,"CFP0021 21L 34N (antibody, V domains shown) VH: QVQLVESGGGLVQPGGSLRLSCAASGFTFSDHYMDWVRQAPGKGLEWVGRTRNKANSYTTEYAASVKGRFTISRDDSKNSLYLQMNSLKTEDTAVYYCARTGMMYWGIFDVWGQGTLVTVSS VL: DIQMTQSPSSLSASVGDRVTITCRASQSIEDDLNWYQQKPGKAPKLLIYHASTLQSGVPSRFSGSGSGTDFTLTISSLQPEDFATYYCQQHDSYPLTFGQGTKVEIK",14.4
8,"CFP0021 21L 50A (antibody, V domains shown) VH: QVQLVESGGGLVQPGGSLRLSCAASGFTFSDHYMDWVRQAPGKGLEWVGRTRNKANSYTTEYAASVKGRFTISRDDSKNSLYLQMNSLKTEDTAVYYCARTGMMYWGIFDVWGQGTLVTVSS VL: DIQMTQSPSSLSASVGDRVTITCRASQSIEDDLAWYQQKPGKAPKLLIYAASTLQSGVPSRFSGSGSGTDFTLTISSLQPEDFATYYCQQHDSYPLTFGQGTKVEIK",33.4
9,"CFP0021 21L 50D (antibody, V domains shown) VH: QVQLVESGGGLVQPGGSLRLSCAASGFTFSDHYMDWVRQAPGKGLEWVGRTRNKANSYTTEYAASVKGRFTISRDDSKNSLYLQMNSLKTEDTAVYYCARTGMMYWGIFDVWGQGTLVTVSS VL: DIQMTQSPSSLSASVGDRVTITCRASQSIEDDLAWYQQKPGKAPKLLIYDASTLQSGVPSRFSGSGSGTDFTLTISSLQPEDFATYYCQQHDSYPLTFGQGTKVEIK",53
10,"CFP0021 21L 50E (antibody, V domains shown) VH: QVQLVESGGGLVQPGGSLRLSCAASGFTFSDHYMDWVRQAPGKGLEWVGRTRNKANSYTTEYAASVKGRFTISRDDSKNSLYLQMNSLKTEDTAVYYCARTGMMYWGIFDVWGQGTLVTVSS VL: DIQMTQSPSSLSASVGDRVTITCRASQSIEDDLAWYQQKPGKAPKLLIYEASTLQSGVPSRFSGSGSGTDFTLTISSLQPEDFATYYCQQHDSYPLTFGQGTKVEIK",44
11,"CFP0021 21L 50Q (antibody, V domains shown) VH: QVQLVESGGGLVQPGGSLRLSCAASGFTFSDHYMDWVRQAPGKGLEWVGRTRNKANSYTTEYAASVKGRFTISRDDSKNSLYLQMNSLKTEDTAVYYCARTGMMYWGIFDVWGQGTLVTVSS VL: DIQMTQSPSSLSASVGDRVTITCRASQSIEDDLAWYQQKPGKAPKLLIYQASTLQSGVPSRFSGSGSGTDFTLTISSLQPEDFATYYCQQHDSYPLTFGQGTKVEIK",61.1
12,"CFP0021 21L 50S (antibody, V domains shown) VH: QVQLVESGGGLVQPGGSLRLSCAASGFTFSDHYMDWVRQAPGKGLEWVGRTRNKANSYTTEYAASVKGRFTISRDDSKNSLYLQMNSLKTEDTAVYYCARTGMMYWGIFDVWGQGTLVTVSS VL: DIQMTQSPSSLSASVGDRVTITCRASQSIEDDLAWYQQKPGKAPKLLIYSASTLQSGVPSRFSGSGSGTDFTLTISSLQPEDFATYYCQQHDSYPLTFGQGTKVEIK",40.6
13,"CFP0021 21L 50T (antibody, V domains shown) VH: QVQLVESGGGLVQPGGSLRLSCAASGFTFSDHYMDWVRQAPGKGLEWVGRTRNKANSYTTEYAASVKGRFTISRDDSKNSLYLQMNSLKTEDTAVYYCARTGMMYWGIFDVWGQGTLVTVSS VL: DIQMTQSPSSLSASVGDRVTITCRASQSIEDDLAWYQQKPGKAPKLLIYTASTLQSGVPSRFSGSGSGTDFTLTISSLQPEDFATYYCQQHDSYPLTFGQGTKVEIK",38.8
14,"CFP0021 21L 50Y (antibody, V domains shown) VH: QVQLVESGGGLVQPGGSLRLSCAASGFTFSDHYMDWVRQAPGKGLEWVGRTRNKANSYTTEYAASVKGRFTISRDDSKNSLYLQMNSLKTEDTAVYYCARTGMMYWGIFDVWGQGTLVTVSS VL: DIQMTQSPSSLSASVGDRVTITCRASQSIEDDLAWYQQKPGKAPKLLIYYASTLQSGVPSRFSGSGSGTDFTLTISSLQPEDFATYYCQQHDSYPLTFGQGTKVEIK",74.9
15,"CFP0021 21L 53H (antibody, V domains shown) VH: QVQLVESGGGLVQPGGSLRLSCAASGFTFSDHYMDWVRQAPGKGLEWVGRTRNKANSYTTEYAASVKGRFTISRDDSKNSLYLQMNSLKTEDTAVYYCARTGMMYWGIFDVWGQGTLVTVSS VL: DIQMTQSPSSLSASVGDRVTITCRASQSIEDDLAWYQQKPGKAPKLLIYHASHLQSGVPSRFSGSGSGTDFTLTISSLQPEDFATYYCQQHDSYPLTFGQGTKVEIK",75.7
16,"CFP0021 21L 53N (antibody, V domains shown) VH: QVQLVESGGGLVQPGGSLRLSCAASGFTFSDHYMDWVRQAPGKGLEWVGRTRNKANSYTTEYAASVKGRFTISRDDSKNSLYLQMNSLKTEDTAVYYCARTGMMYWGIFDVWGQGTLVTVSS VL: DIQMTQSPSSLSASVGDRVTITCRASQSIEDDLAWYQQKPGKAPKLLIYHASNLQSGVPSRFSGSGSGTDFTLTISSLQPEDFATYYCQQHDSYPLTFGQGTKVEIK",97.6
17,"CFP0021 21L 53S (antibody, V domains shown) VH: QVQLVESGGGLVQPGGSLRLSCAASGFTFSDHYMDWVRQAPGKGLEWVGRTRNKANSYTTEYAASVKGRFTISRDDSKNSLYLQMNSLKTEDTAVYYCARTGMMYWGIFDVWGQGTLVTVSS VL: DIQMTQSPSSLSASVGDRVTITCRASQSIEDDLAWYQQKPGKAPKLLIYHASSLQSGVPSRFSGSGSGTDFTLTISSLQPEDFATYYCQQHDSYPLTFGQGTKVEIK",73.2
18,"CFP0021 21L 91R (antibody, V domains shown) VH: QVQLVESGGGLVQPGGSLRLSCAASGFTFSDHYMDWVRQAPGKGLEWVGRTRNKANSYTTEYAASVKGRFTISRDDSKNSLYLQMNSLKTEDTAVYYCARTGMMYWGIFDVWGQGTLVTVSS VL: DIQMTQSPSSLSASVGDRVTITCRASQSIEDDLAWYQQKPGKAPKLLIYHASTLQSGVPSRFSGSGSGTDFTLTISSLQPEDFATYYCQQRDSYPLTFGQGTKVEIK",1.5
19,"CFP0021 21L 91S (antibody, V domains shown) VH: QVQLVESGGGLVQPGGSLRLSCAASGFTFSDHYMDWVRQAPGKGLEWVGRTRNKANSYTTEYAASVKGRFTISRDDSKNSLYLQMNSLKTEDTAVYYCARTGMMYWGIFDVWGQGTLVTVSS VL: DIQMTQSPSSLSASVGDRVTITCRASQSIEDDLAWYQQKPGKAPKLLIYHASTLQSGVPSRFSGSGSGTDFTLTISSLQPEDFATYYCQQSDSYPLTFGQGTKVEIK",17.8
20,"CFP0021 21L 91Y (antibody, V domains shown) VH: QVQLVESGGGLVQPGGSLRLSCAASGFTFSDHYMDWVRQAPGKGLEWVGRTRNKANSYTTEYAASVKGRFTISRDDSKNSLYLQMNSLKTEDTAVYYCARTGMMYWGIFDVWGQGTLVTVSS VL: DIQMTQSPSSLSASVGDRVTITCRASQSIEDDLAWYQQKPGKAPKLLIYHASTLQSGVPSRFSGSGSGTDFTLTISSLQPEDFATYYCQQYDSYPLTFGQGTKVEIK",79.5
21,"CFP0021 21L 92N (antibody, V domains shown) VH: QVQLVESGGGLVQPGGSLRLSCAASGFTFSDHYMDWVRQAPGKGLEWVGRTRNKANSYTTEYAASVKGRFTISRDDSKNSLYLQMNSLKTEDTAVYYCARTGMMYWGIFDVWGQGTLVTVSS VL: DIQMTQSPSSLSASVGDRVTITCRASQSIEDDLAWYQQKPGKAPKLLIYHASTLQSGVPSRFSGSGSGTDFTLTISSLQPEDFATYYCQQHNSYPLTFGQGTKVEIK",4.7

# From patent US20180016327A1 (Chugai, published 2018)
